# Test results reported in patent publication US20120121633A1, “HIV CD4 BINDING SITE BASED COVALENT IMMUNOGEN COMPOSITIONS” (priority 2010, published 2012).
# How the values were obtained:
# [1] = molecular target: gp120 on intact HIV virions (strain MN) (HIV strain MN) (UniProt P05877); test: MAb (7.5 µg/ml) with intact HIV virions, complexes captured on Protein G, p24 ELISA
# [2] = molecular target: gp120 on intact HIV virions (strain MN) (HIV strain MN) (UniProt P05877); test: MAb (0.8 µg/ml) with intact HIV virions, complexes captured on Protein G, p24 ELISA
# [3] = molecular target: gp120 on intact HIV virions (strain MN) (HIV strain MN) (UniProt P05877); test: MAb (45 µg/ml) with intact HIV virions, complexes captured on Protein G, p24 ELISA
substance,measurement,setting,value
MAb 2G12 (antibody),A490 (MAb binding of HIV in the absence of competitors),[1],0.246 A490
MAb 447-52D (antibody),A490 (MAb binding of HIV in the absence of competitors),[2],0.291 A490
MAb clone b12 (antibody),A490 (MAb binding of HIV in the absence of competitors),[3],0.176 A490
